Source: patent publication US20230118024A1 (Chugai, published 2023)
Read-outs that look alike come from different tables or passages of the source.

Experiments:
[1] = molecular target: T1, recombinant HLA-DQ2.5/33mer gliadin peptide complex (human; wheat); test: SPR, Ab captured, 37 C, pH 7.4
T1 construct: also called soluble HLA-DQ2.5/33mer gliadin peptide complex
T1 alpha: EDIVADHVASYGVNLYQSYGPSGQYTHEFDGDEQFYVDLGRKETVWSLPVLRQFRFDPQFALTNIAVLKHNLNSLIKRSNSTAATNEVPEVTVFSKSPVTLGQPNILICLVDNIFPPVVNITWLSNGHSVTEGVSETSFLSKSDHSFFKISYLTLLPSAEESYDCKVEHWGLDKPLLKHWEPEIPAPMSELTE
T1 beta: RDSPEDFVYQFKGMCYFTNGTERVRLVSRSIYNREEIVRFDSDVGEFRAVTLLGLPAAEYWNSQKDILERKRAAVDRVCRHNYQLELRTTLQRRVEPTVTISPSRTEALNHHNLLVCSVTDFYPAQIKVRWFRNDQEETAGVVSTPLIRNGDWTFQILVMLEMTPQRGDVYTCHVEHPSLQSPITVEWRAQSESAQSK
T1 peptide: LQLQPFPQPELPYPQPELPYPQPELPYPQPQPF

[2] = molecular target: T2, HLA-DQ2.5/33mer gliadin peptide complex on Ba/F3 cells (human; wheat); test: cell-based or functional assay
[3] = molecular target: T3, HLA-DQ2.5/omega 1 gliadin peptide complex on Ba/F3 cells (human; wheat); test: FACS
T3 construct: also called Ba/F3-HLA-DQ2.5/omega 1 gliadin peptide

[4] = molecular target: T4, HLA-DQ2.5/secalin 1 peptide complex on Ba/F3 cells (human; rye); test: FACS
T4 construct: also called Ba/F3-HLA-DQ2.5/secalin 1 peptide

[5] = molecular target: T5, HLA-DQ2.5/secalin 2 peptide complex on Ba/F3 cells (human; rye); test: FACS
T5 construct: also called Ba/F3-HLA-DQ2.5/secalin 2 peptide

[6] = molecular target: T6, HLA-DQ2.5 on HLA-DQ2.5 positive PBMC-B cells (human, UniProt P01909 24-254; P01920 33-261); test: FACS
T6 construct: also called DQ2.5 + PBMC; HLA-DQ2.5+PBMC B cell
T6 MHC II alpha: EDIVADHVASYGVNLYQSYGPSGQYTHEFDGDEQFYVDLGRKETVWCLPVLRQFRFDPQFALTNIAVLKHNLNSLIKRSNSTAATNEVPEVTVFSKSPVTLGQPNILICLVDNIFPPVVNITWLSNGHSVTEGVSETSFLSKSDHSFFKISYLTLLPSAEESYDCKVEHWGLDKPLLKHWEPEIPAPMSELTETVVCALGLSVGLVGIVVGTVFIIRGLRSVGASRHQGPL
T6 MHC II beta: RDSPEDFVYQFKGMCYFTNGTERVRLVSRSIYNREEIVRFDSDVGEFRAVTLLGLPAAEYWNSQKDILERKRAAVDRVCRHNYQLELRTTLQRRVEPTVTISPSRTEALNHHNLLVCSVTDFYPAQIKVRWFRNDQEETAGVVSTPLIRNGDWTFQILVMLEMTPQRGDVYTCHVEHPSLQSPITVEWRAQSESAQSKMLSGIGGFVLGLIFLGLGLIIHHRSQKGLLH

[7] = molecular target: T7, HLA-DQ2.5/CLIP peptide complex on Ba/F3 cells (human); test: FACS
T7 construct: also called Ba/F3-HLA-DQ2.5/CLIP peptide

[8] = molecular target: T8, HLA-DQ2.5/alpha 1 gliadin peptide complex on Ba/F3 cells (human; wheat); test: FACS
T8 construct: also called Ba/F3-HLA-DQ2.5/alpha 1 gliadin peptide

[9] = molecular target: T2, HLA-DQ2.5/33mer gliadin peptide complex …; test: FACS
[10] = molecular target: T9, HLA-DQ2.5/omega 2 gliadin peptide complex on Ba/F3 cells (human; wheat); test: FACS
T9 construct: also called Ba/F3-HLA-DQ2.5/omega 2 gliadin peptide

[11] = molecular target: T10, HLA-DQ2.5 on Ba/F3 cells (not in the form of a complex with a linked peptide) (human, UniProt P01909 24-254; P01920 33-261); test: FACS
T10 construct: also called Ba/F3-HLA-DQ2.5; No peptide
T10 MHC II alpha: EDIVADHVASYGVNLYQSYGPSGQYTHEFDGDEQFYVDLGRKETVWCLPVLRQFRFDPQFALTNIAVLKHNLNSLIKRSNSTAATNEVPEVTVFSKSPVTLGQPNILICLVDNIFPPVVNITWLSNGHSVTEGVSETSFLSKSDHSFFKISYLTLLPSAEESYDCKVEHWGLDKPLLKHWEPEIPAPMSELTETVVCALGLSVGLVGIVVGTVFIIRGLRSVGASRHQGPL
T10 MHC II beta: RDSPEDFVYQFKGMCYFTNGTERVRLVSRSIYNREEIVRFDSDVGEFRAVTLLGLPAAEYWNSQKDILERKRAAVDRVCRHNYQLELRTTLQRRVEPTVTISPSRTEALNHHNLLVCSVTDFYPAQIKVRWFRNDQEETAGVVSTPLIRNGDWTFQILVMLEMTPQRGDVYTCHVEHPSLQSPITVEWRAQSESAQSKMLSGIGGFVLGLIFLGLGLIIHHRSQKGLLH

[12] = molecular target: T11, HLA-DQ2.5/alpha 1b gliadin peptide complex on Ba/F3 cells (human; wheat); test: FACS
T11 construct: also called Ba/F3-HLA-DQ2.5/alpha 1b gliadin peptide

[13] = molecular target: T12, HLA-DQ2.5/alpha 2 gliadin peptide complex on Ba/F3 cells (human; wheat); test: FACS
T12 construct: also called Ba/F3-HLA-DQ2.5/alpha 2 gliadin peptide

[14] = molecular target: T1, recombinant HLA-DQ2.5/33mer gliadin …; test: AlphaLISA neutralizing assay: biotinylated HLA-DQ2.5/33mer gliadin peptide complex on acceptor beads, biotinylated D2 TCR on donor beads; blocked ligand: D2 TCR (Example 4.4)
[15] = molecular target: T1, recombinant HLA-DQ2.5/33mer gliadin …; test: SPR, Ab captured, 37 C, pH 7.4
[16] = molecular target: T1, recombinant HLA-DQ2.5/33mer gliadin …; test: AlphaLISA neutralizing assay: biotinylated HLA-DQ2.5/33mer gliadin peptide complex on acceptor beads, biotinylated D2 TCR on donor beads; blocked ligand: D2 TCR (Example 12)

B1: DQN0324hh (antibody, human IgG1, kappa, V domains shown)
VH: QSLEESGGDLVKPGASLALTCTASGFSLINNYYMCWVRQAPGKGLEWIACIYAGLGGWTYYASWAKGRFTISKTSSTTVTLQMSSLTVADAATYFCARAATTYYHFNLWGPGTLVTVSS
VL: AVVLTQTESPVSAAVGDTVTIKCQASQSIGNALAWYQQKPGQPPKLLIYDASTLASGVPSRFKGSGSGTQFTLTISDLECADAATYYCQSYDYGSSADTYTFGGGTKVEIKR
notes: also called DQN0324Lh
[1]
  Kd: 6.32 nM
[2]
  IC50 (read off the curve): ~0.2 µg/mL
[3]
  FIG. 30 FACS value (IC17=0, DQN0139bb=100): 7.3
[4]
  FIG. 30 FACS value (IC17=0, DQN0139bb=100): 16.3
[5]
  FIG. 30 FACS value (IC17=0, DQN0139bb=100): 14.5
[6]
  FIG. 30 FACS value (IC17=0, DQN0139bb=100): 0.3
[7]
  FIG. 30 FACS value (IC17=0, DQN0139bb=100): 0.3
[8]
  FIG. 30 FACS value (IC17=0, DQN0139bb=100): 26.9
[9]
  FIG. 30 FACS value (IC17=0, DQN0139bb=100): 59.2
[10]
  FIG. 30 FACS value (IC17=0, DQN0139bb=100): 79.4
[11]
  FIG. 30 FACS value (IC17=0, DQN0139bb=100): 0
[12]
  FIG. 30 FACS value (IC17=0, DQN0139bb=100): 8.2
[13]
  FIG. 30 FACS value (IC17=0, DQN0139bb=100): 34.9

B2: DQN0225dd (antibody, human IgG1, kappa, V domains shown)
VH: QSLEESGGGLVKPGGTLTLTCTASGFSFSSAYYMCWVRQAPGKGLEWIACIYVGSGSTYYASWAQGRCTISKASSTTVTLQMTSLTAADTATYFCARDPLIYYYYGELNLWGPGTLVTVSS
VL: AVVLTQTASPVSAPVGGTVTIKCQASEDISSNLAWYQQKPGQRPKVLIYSASTLASGVSSQFKGSGSGTQFTLTISDLECADAATYYCQSYYDISSVTFGGGTKVEIKR
notes: also called DQN0225Hd; DQN0225Ld
[1]
  Kd: 7.88 nM
[2]
  IC50 (read off the curve): ~0.3 µg/mL
[3]
  FIG. 30 FACS value (IC17=0, DQN0139bb=100): 75.6
[4]
  FIG. 30 FACS value (IC17=0, DQN0139bb=100): 77.2
[5]
  FIG. 30 FACS value (IC17=0, DQN0139bb=100): 68.7
[6]
  FIG. 30 FACS value (IC17=0, DQN0139bb=100): -0.1
[7]
  FIG. 30 FACS value (IC17=0, DQN0139bb=100): 1.2
[8]
  FIG. 30 FACS value (IC17=0, DQN0139bb=100): 93.5
[9]
  FIG. 30 FACS value (IC17=0, DQN0139bb=100): 108
[10]
  FIG. 30 FACS value (IC17=0, DQN0139bb=100): 62
[11]
  FIG. 30 FACS value (IC17=0, DQN0139bb=100): -0.1
[12]
  FIG. 30 FACS value (IC17=0, DQN0139bb=100): 81.3
[13]
  FIG. 30 FACS value (IC17=0, DQN0139bb=100): 85.1

B3: DQN0282ff (antibody, human IgG1, kappa, V domains shown)
VH: QSVEESGGRLVTPGTPLTLSCKASGFDFSIYYMSWVRQAPGKGLEWIGVINSGGGVTWYASWVKGRFTISKTSTTVDLKITSPTTEDTATYFCARLGDSNHYDLWGPGTLVTVSS
VL: AYDMTQTPSSVSAAVGGTVTIKCQASETISSYLAWYQQKPGQRPQLLIYDASNLASGVPSRFKGSGSGTEFTLTISDLECADAATYYCQTHYYITSTTFGGGTKVEIKR
notes: also called DQN0282Hf; DQN0282Lf
[14]
  IC50 (read off the curve): ~0.3 µg/mL
[1]
  Kd: 11.4 nM
[15]
  Kd: 13.7 nM
[3]
  FIG. 30 FACS value (IC17=0, DQN0139bb=100): 7
[4]
  FIG. 30 FACS value (IC17=0, DQN0139bb=100): 49.6
[5]
  FIG. 30 FACS value (IC17=0, DQN0139bb=100): 48
[6]
  FIG. 30 FACS value (IC17=0, DQN0139bb=100): 4.3
[7]
  FIG. 30 FACS value (IC17=0, DQN0139bb=100): 28.7
[8]
  FIG. 30 FACS value (IC17=0, DQN0139bb=100): 32.6
[9]
  FIG. 30 FACS value (IC17=0, DQN0139bb=100): 73.5
[10]
  FIG. 30 FACS value (IC17=0, DQN0139bb=100): 42.6
[11]
  FIG. 30 FACS value (IC17=0, DQN0139bb=100): 3
[12]
  FIG. 30 FACS value (IC17=0, DQN0139bb=100): 20.9
[13]
  FIG. 30 FACS value (IC17=0, DQN0139bb=100): 34.5

B4: DQN0334bb (antibody, human IgG1, kappa, V domains shown)
VH: QQQLEESGGDLVQPEGSLTLTCKASGFDFSFNAMCWVRQAPGRGPEWIACIYNGNGSTYYASWAKGRFTISKTSSTSVTLQMTSLTAADTATYFCARGGYGLGYAGYGDVNYFNLWGPGTLVTVSS
VL: AVVLTQTASPVSAPVGGTVTIKCQASEDIYFLLAWYRQKPGQPPKLLIYGASTLASGVPSRFKGSGSGTEYTLTISDLECADAATYYCQSYWYGDSGPNTFGGGTKVEIKR
notes: also called DQN0334Hb; DQN0334Lb
[14]
  IC50 (read off the curve): ~1 µg/mL
[1]
  Kd: 5.72 nM
[16]
  IC50 (read off the curve): ~0.7 µg/mL
[15]
  Kd: 6.29 nM
[3]
  FIG. 30 FACS value (IC17=0, DQN0139bb=100): 2.8
[4]
  FIG. 30 FACS value (IC17=0, DQN0139bb=100): 5
[5]
  FIG. 30 FACS value (IC17=0, DQN0139bb=100): 3.3
[6]
  FIG. 30 FACS value (IC17=0, DQN0139bb=100): 0.8
[7]
  FIG. 30 FACS value (IC17=0, DQN0139bb=100): 1.2
[8]
  FIG. 30 FACS value (IC17=0, DQN0139bb=100): 46.4
[9]
  FIG. 30 FACS value (IC17=0, DQN0139bb=100): 65.9
[10]
  FIG. 30 FACS value (IC17=0, DQN0139bb=100): 36.6
[11]
  FIG. 30 FACS value (IC17=0, DQN0139bb=100): 0.4
[12]
  FIG. 30 FACS value (IC17=0, DQN0139bb=100): 16.5
[13]
  FIG. 30 FACS value (IC17=0, DQN0139bb=100): 45.3
